This assay concerns the target interleukin 3 receptor α (IL-3Rα) chain (human) (UniProt P26951). The assay can be described thus: cell-based or functional assay.
Chain of UniProt P26951 (P26951 20-378): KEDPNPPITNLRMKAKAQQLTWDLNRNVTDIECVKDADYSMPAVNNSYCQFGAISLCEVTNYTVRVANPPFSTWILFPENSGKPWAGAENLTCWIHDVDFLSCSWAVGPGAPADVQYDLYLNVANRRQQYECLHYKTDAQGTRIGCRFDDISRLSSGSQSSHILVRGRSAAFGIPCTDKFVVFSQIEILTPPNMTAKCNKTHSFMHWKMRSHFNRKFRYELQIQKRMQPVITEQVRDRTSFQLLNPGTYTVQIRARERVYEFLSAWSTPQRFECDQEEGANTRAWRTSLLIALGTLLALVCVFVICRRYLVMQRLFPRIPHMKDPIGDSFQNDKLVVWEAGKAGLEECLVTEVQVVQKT

As for “chimeric version of 7G3 with a human IgG1 constant domain (ch7G3) (antibody)”, the pDCs (% of total cells remaining in culture), 4 h, 10 µg/ml antibody on human PBMC (% of total cells) stood at 0.1; the pDCs (% of total cells remaining in culture), 24 h, 10 µg/ml antibody on human PBMC (% of total cells) was found to be 0.02; the pDCs (% of total cells remaining in culture), 48 h, 10 µg/ml antibody on human PBMC (% of total cells) came out at 0.005.
